Measurements taken from article PMC4654587.

Legend:
[1] = target: His6-CsuA/B (N-terminal donor strand sequence replaced by a His6-tag); settings: parent: est. 1.0; read off a plot
[2] = target: His-tagged EcpB (wild type) (Escherichia coli) (UniProt P77188); assay: SEC

Substance	ratio to parent [1]	stoichiometry N [2]
CsuC (wild type, without tag) R89A	0.15	
CsuC (wild type, without tag) R89A; Y196F	0.02	
CsuC (wild type, without tag) R174A	0.5	
CsuC (wild type, without tag) Y196F	0.13	
EcpA with a Trp11Ala mutation (from UniProt P0AAA3 23-195) (natural protein)		1
